Measurements: the DeepSol protein solubility set

Assay: soluble on expression in E. coli; label from the status in PepcDB or PDB records
In the case of “MGSDKIHHHHHHVDLMLKSVISYFLPNYCLVCEREIDPNDYLCKDCLTSIRGPIMAPVELLNIDSAHSYWKYESPMKELIRAYKFGDRPGVARLFAKIVFEMIDVFAPSTDVIVPVPTSLQAFIRRGFDTNLRILRHLARTIDIKIDNVLSISGKTVPQSTLKMQDRIDNVRDKFFLRKKPRSTSVILFDDVVTSGATASQCARVLREGGVKEITLLAIASAKK”, the “soluble on expression in E. coli” value is reported as “not soluble”.
With “MGSDKIHHHHHHVEQTQTRVYQYKFVNSISNIDSLIWNIFFGSSHPFTRHEYLSALEMSRCVSTETGWTPMHLIVMDGDNIIALMPLYLKSHSWGEYVFDWAWAEAYERHNIGYYPKLVGSIPFTPTTGRRIGIDPRLPKHDQQPLIDGIQTYLSQTVIKQGWSSWHCLFTNTEQHLQFAQAGVMERVGCQFHWHNQNYADFNDFLSTLTSRKRKNITKERISARQQLQFRFIDGDKASAQQWQNFVRCYQNTYLKRSGHKGYLSAAFFEQIAATMGSMIRLLLIENSDAQLVASALYFVSDTHLYGRYWGALTECDYVHFEACYYQGIEYAIANQLLVFDAGAQGEHKVARGFRPVKTTSSHFVAHEGFNDAIGAFCQQEQAHIDIYIQQMCEQLPYKSIDNT” the “soluble on expression in E. coli” value was “not soluble”.
In the case of “MGSDKIHHHHHHVINLKELKILHTSDWHLGVTSWTSSRPVDRREELKKALDKVVEEAEKREVDLILLTGDLLHSRNNPSVVALHDLLDYLKRMMRTAPVVVLPGNHDWKGLKLFGNFVTSISSDITFVMSFEPVDVEAKRGQKVRILPFPYPDESEALRKNEGDFRFFLESRLNKLYEEALKKEDFAIFMGHFTVEGLAGYAGIEQGREIIINRALIPSVVDYAALGHIHSFREIQKQPLTIYPGSLIRIDFGEEADEKGAVFVELKRGEPPRYERIDASPLPLKTLYYKKIDTSALKSIRDFCRNFPGYVRVVYEEDSGILPDLMGEIDNLVKIE”, the “soluble on expression in E. coli” value is reported as “soluble”.
For “MGSDKIHHHHHHVKLAAVDIGSNAIRFQVSKILEYNGMIMFKKMEYVRFPLRLGEDVFRLGMISAEKEMKFIKLIQTFKNLFELYEVDDYMISATSAMRESKNGRDIVLKVKGLVGVDIDIIDGDKEAELINTVLHNELDDNSYIHIDVGGGSTELNLFVNRKKIAARSFKIGSVRRLQGLDAPEEWESMKQWVKDNIDKLPKPVTAIGTGGNIGKIFELGTTEKSKKDKRMISLKKIEEVQHNISQYSYEDRINVLMLNSDRADVIIPASEIYTSVMEFAKAKNMLVPEVGLKDGLMLMLYERNKHLHITDLDSIRNVNKYQK”, the “soluble on expression in E. coli” value was “not soluble”.
With “MGSDKIHHHHHHVLLEEFENTSAVIEPTDMAIRGGGEVCETMIFSFNGEIVDRVRQLPESREGGYLESINGRHPWYILERDGVRVAVMLAVIGAPMAVGHLEELKACGFENFIVLGSCGVLDKSLVADKIILPSSALRDEGTSYHYAPASDEISYDPALLLTMEKALDQAGIEHVRAKTWTTDAFYRETSAKVKRRLAAGAMVVDMEASAIMAWANFRQAKVYQFFYTADYVDYHKNEWDARREERTADSMTFFEVAMAIARKLESTSC” the “soluble on expression in E. coli” value was “not soluble”.
With “MGSDKIHHHHHHVMTKAADGMSDWDNMAIICDVLGRAPDVEMGSIGEGWSLCRWRQFVGAYTLPALPQPIFTVHIAGKPQVKTWDKGGWTETSSIPGCATIVPAGMPTGWLVDGELDVVTLSMASDVLAGQPHADQFNRMRFAFSDPLGVALTRQILSEIYAPQAEERTAYVSAMVGALKAHILSGPPAHGNPVDIPVSDFSAYRLHKIMNAILADPAAEHSLEAMAAVAGVTPSHFCRLFKKAIGITPHQYVMKARLDRAQQMLVQTEMSLAALSEAAGFASQSHFSRAFRSWFGMAPSDFRQQERRRTD” the “soluble on expression in E. coli” value was “not soluble”.
In the case of “MGSDKIHHHHHHVPGLLPDVDREGLLEYSVVYTDRSLNHMSQLFQGVMRDISNSLKKVYNAKSAVVVPGSGTFGMEAVARQFATNRKCLVIRNGWFSYRWTQIFDMGGIPSESIVLKARPVEEGRQAAYAPPPIEEVVAAIRENKPDLVFAPHVETASGIMLPDAYLRAVADAVHAVDGMFVLDCIASGTVWVDMKASGVDVLISAPQKGWSASPCCGLVMLGELARERIEGTTSTSFACDLRKWLQIMEAYENGGFAYHATMPTDGLATLRDVMKETEAYGFDKVRAEQVELGRRVRSVLADRGFRSVAAEGFEAPGVVVSYTDDDGIRSGKKFADAGLQIAAGVPLQCDEPQDFKTFRIGLFGLDKLHDVEGAVGRFVKGLGSIL”, the “soluble on expression in E. coli” value is reported as “not soluble”.
With “MGSDKIHHHHHHVPVRDGLQPLFVAAPLHAGGRPAAFGLKDRVMADNTTSTALLDLRGVRKTFLTPDRRERTVLEGVDFKLEEGEIVALLGKSGSGKSTLLRIMAGLIKANGGEVKYRGHLMTGPAKGISMVFQSFALFPWLTVEENVELGLEAAGIPKAEREDRANEAIDLIGLGGYESAYPKELSGGMRQRVGFARALVMRPDVLLLDEPFSALDVLTSETLREDLLELWDERKIPTKGILLVSHNIEEAVSMADRVLVFSSDPGRVRAEIRVNLPRPRDTESAAFRQIVDEVYTLMTANVRGGGVGATEQLTLGYRLPDTTPGKMAGLLETVAEAPFNGRADLPQLAEETELEDDQLFHLFEGLRVLGLARIAAGDIFVTHSGQAFVEADDAHRKELFAEALVKNIPLAAHIRRVLDERKDHRAPEDRFLQELQDYLTDDEAERVLETTITWGRYAEIFDYDYNAGVLMLPEEVVEELEAGEETRDDPGARE” the “soluble on expression in E. coli” value was “not soluble”.
With “MGSDKIHHHHHHVRVDLRHISDEKKLSYSDVLWQYVKQDFLWRINNAGLGNVLWLQKPYFATGEKLAFYYVYGSPGGRAEDNGTPFDVLRNIIIGNAGLNSHSDVVWTNAELSKQAAKVSANEPDASDMQPLIHTWNLSAMCDGGEVPFAVRLERLNEADAGVPMTKNIVFMNSFYGDADVCIFSPESRLGEQLFEIMDKLELVSDMKPYGDAYEILKRYSVSGRQIIDIFKVRAKNKPKTVSMHRLEQVYGYRSYAYMRRRWERYCKRLTRQQMAYANAGWEETLDLILDFLTPVWSAFCNDEIFYDDWMPELGRFLG” the “soluble on expression in E. coli” value was “not soluble”.
For “MGSDKIHHHHHHVSLLGEERKSQIMQWLEEEGKVMTKDLIDRLDVSGETVRRYLEELERERQLKRVYGGAIYQGGKQESPISRRTDQLSRRLARYAKGWLADYSCIFLGKGEPVEHLLPYLSGSATIVTNSLSIASHLEQCRETGPFHGEIRLLGGTVDSYGQTVGVEVLQALDAYAFDASFLTFDGAEIERGFVSDDIESSLIQKAIIGRTKDVYAFLACDEFEGNRKYKVAEFRRAKIVLSPSTYPPSWEMKLFNERVNWTVVS”, the “soluble on expression in E. coli” value was “not soluble”.
For “MGSDKIHHHHHHVSLSFDFSPDFNPLAARMRPASVEEYIGQSHLLGEGKPLRQALLAGKVHSMLLWGPPGTGKTTLAELVARYANAHVERISAVTSGVKEIRAAIEQAKNVAQSRGQRTLLFVDEVHRFNKSQQDAFLPFIEDGTVIFIGATTENPSFEVNNALLSRCRVYLIKRLEDDAIGQILAQANSDEARGLGKRGLLLKAELKSAIARLCDGDARKALNLLELMSDLLPDGGEYNLELLSEVAGHQAAGYDKNGDQYYDLISAVHKSIRGSAPDAALYWFCRILEGGGDPLYVARRLLAIASEDIGNADPNAMTVALNAWDCFHRVGPAEGERAIAQAVIYLASAPKSNAVYTAFKAARVLARETGNAPVPNHLRNAPTKLMSELGVGEGYRYAHDEDGAFAAGENYFPEVLQHSRIYQPTARGFEKRIRDKLAHLDALNQQSGRKRYE”, the “soluble on expression in E. coli” value was “not soluble”.
In the case of “MGSDKIHHHHHHVSTQFQGVIPPVITPRHADGSIDTSSLKNVTRHLIDGGVSGLFVLGSSGEVPYMTNAERELVVSTIADANASVGARAVPLIVGANEQTTNRVIEEAKKVIGLGADAIVVTSMYYAIGNAAETETHFRSIHAAVDKPIFAYDVPVRTHFKLPTDLLVRLGRDGVIAGVKDSSGDDVSFRQLLLEAKDIPDFDIFTGHEVVVDGALLGGAQGVVPGLGNVDPAGYRRLFDAAQAGDWATAAREQDRLADLFEIVYAPNGRVSGGAAGLGAFKTALQLMGVIESNTMSQPMLSLNDDEAAAIRTILERNGLV”, the “soluble on expression in E. coli” value is reported as “not soluble”.
In the case of “MGSDKIHHHHHHVSVSDAGNFDANDVAVTFGIDKVREAFEQRRSTLPPFAPYDEEPESERPKLKATPFSWRDPATIPPRKWLYGRHLIRKFLSLDIAPGGLGKSSVKIVEALAMTTGRNLLGKDCHEGPLNVWLYNLEDPAEETERRIHAAAQWFEIGPDDVGERLFVDSGREQPICIAEETDGGARIVRPVVEAVIEQLKDRRIDVLSIDPFVSSHAISENDNRAIDMVAKEWSRIADICDCAINLVHHVRKTNGAEVTAESSRGAVSLIGAARSVVVYNRMTKEEGERAGIEPRQLGFYFRTQNDKANLAPPEAADWFRMNNVDLPNGDSVGVACPWQWPDPFDGVSTWHLKEVQKRVSQGRYRADVRSAQWVGHVIANVLDIDLEKKAGRVKDILKQWLKNDMLREVEGTDEKRNVRKFVEVGTWHTD”, the “soluble on expression in E. coli” value is reported as “not soluble”.
In the case of “MGSDKIHHHHHHVTEAQTDPKYYDVVEATWPCLRCEKLGDITLRVGAGGGSRVSAATCDALVSDAQIAQAEAAMQDFDQPRLFMIRDGQDALDGQLERLGYAVMDPVALWTVAPSMLTDVEIPRVTTFCLWEPLAIQREIWATGGIGPERLAIMERATRPKTSILGRWDDKPAGAAFVGMHEGIAMLHALEILPHQRRKGMGVWMMRQAAYWAAEQGATELAVLCTRANAGANALYARLGMQQAGGYHYRIKR”, the “soluble on expression in E. coli” value is reported as “not soluble”.
For “MGSDKIHHHHHHYGGDITYNNHNNFHVLHDRHHRSHHSRSNSRDSDEKWECRRLGVFNSPNPLTNPLLSAPKIAYFNRNGKEYAIAVCENPQIQILVGKSRGASPDFTQTRDYAVLSASSKSGLTFKCNRRHDRYEAVNLVTGSMARIEALACITVAQNDTAAVAIVNGIVGPLQAAGLHL”, the “soluble on expression in E. coli” value was “not soluble”.
For “MGSETKHSAKVKIVTRESPPSAKEHMRPTKTQILVPPTQSLPNGKKPNFGKSTKQRREPRERTSKTGHEDDKATMVTVNIDAFLHDKAPKKKSCKYKKKKTRQYQDRAAASIDSKPHVAGHTAFAGASFTTDIPHEAALPKPSFV”, the “soluble on expression in E. coli” value was “soluble”.
For “MGSGKPPLILASGSPRRKALLEALGYPIRVAVPGVEEEGLPLPPKALAQALARRKGEAVQGEWVLAADTVVDLDGEVLGKPKDPEENRLFLRRLSGRLHLVHTAFYLRTPKEVVEEVHTARVFFRPLSEEEIAWYVGSGEGLDKAGGYGAQGLGMALLERVEGDFYTVVGLPVSRVFALLWARGFRP”, the “soluble on expression in E. coli” value was “soluble”.
